Laboratory results taken from patent US20030032587A1, “Urocortin peptides” (The Salk Institute for Biological Studies, priority 1995, published 2003).
Bridges are numbered along the chain shown (N, C = ends). Where no end group is shown, it is not given here. [ ]: non-standard residue; d: D form. Orn = NCCC[C@H](N)C(=O)O

B1: (cyclo 29-32)[D-Phe11, Glu29, Lys32]-Ucn(11-40) (peptide)
peptide: [dF]HLLRTLLELARTQSQREEAEKNRIIFDSV-NH2
modifications: lactam 19-22; N-terminus assumed
SMILES: CC[C@H](C)[C@H](NC(=O)[C@H](CCCNC(=N)N)NC(=O)[C@H](CC(N)=O)NC(=O)[C@@H]1CCCCNC(=O)CC[C@H](NC(=O)[C@H](CCC(=O)O)NC(=O)[C@H](CCCNC(=N)N)NC(=O)[C@H](CCC(N)=O)NC(=O)[C@H](CO)NC(=O)[C@H](CCC(N)=O)NC(=O)[C@@H](NC(=O)[C@H](CCCNC(=N)N)NC(=O)[C@H](C)NC(=O)[C@H](CC(C)C)NC(=O)[C@H](CCC(=O)O)NC(=O)[C@H](CC(C)C)NC(=O)[C@H](CC(C)C)NC(=O)[C@@H](NC(=O)[C@H](CCCNC(=N)N)NC(=O)[C@H](CC(C)C)NC(=O)[C@H](CC(C)C)NC(=O)[C@H](Cc2c[nH]cn2)NC(=O)[C@H](N)Cc2ccccc2)[C@@H](C)O)[C@@H](C)O)C(=O)N[C@@H](C)C(=O)N[C@@H](CCC(=O)O)C(=O)N1)C(=O)N[C@H](C(=O)N[C@@H](Cc1ccccc1)C(=O)N[C@@H](CC(=O)O)C(=O)N[C@@H](CO)C(=O)N[C@H](C(N)=O)C(C)C)[C@@H](C)CC
B2: (cyclo 29-32) [Ac-Pro3,D-Phe11, Glu29, D-Glu31, Lys32]-hUcn(3-40) (peptide)
peptide: Ac-PSLSIDLT[dF]HLLRTLLELARTQSQREEA[dE]KNRIIFDSV-NH2
modifications: lactam 27-30
SMILES: CC[C@H](C)[C@H](NC(=O)[C@H](CO)NC(=O)[C@H](CC(C)C)NC(=O)[C@H](CO)NC(=O)[C@@H]1CCCN1C(C)=O)C(=O)N[C@@H](CC(=O)O)C(=O)N[C@@H](CC(C)C)C(=O)N[C@H](C(=O)N[C@H](Cc1ccccc1)C(=O)N[C@@H](Cc1c[nH]cn1)C(=O)N[C@@H](CC(C)C)C(=O)N[C@@H](CC(C)C)C(=O)N[C@@H](CCCNC(=N)N)C(=O)N[C@H](C(=O)N[C@@H](CC(C)C)C(=O)N[C@@H](CC(C)C)C(=O)N[C@@H](CCC(=O)O)C(=O)N[C@@H](CC(C)C)C(=O)N[C@@H](C)C(=O)N[C@@H](CCCNC(=N)N)C(=O)N[C@H](C(=O)N[C@@H](CCC(N)=O)C(=O)N[C@@H](CO)C(=O)N[C@@H](CCC(N)=O)C(=O)N[C@@H](CCCNC(=N)N)C(=O)N[C@@H](CCC(=O)O)C(=O)N[C@H]1CCC(=O)NCCCC[C@@H](C(=O)N[C@@H](CC(N)=O)C(=O)N[C@@H](CCCNC(=N)N)C(=O)N[C@H](C(=O)N[C@H](C(=O)N[C@@H](Cc2ccccc2)C(=O)N[C@@H](CC(=O)O)C(=O)N[C@@H](CO)C(=O)N[C@H](C(N)=O)C(C)C)[C@@H](C)CC)[C@@H](C)CC)NC(=O)[C@@H](CCC(=O)O)NC(=O)[C@H](C)NC1=O)[C@@H](C)O)[C@@H](C)O)[C@@H](C)O
B3: (cyclo 29-32) [D-Tyr11, Glu29, Lys32]-Ucn(11-40) (peptide)
peptide: [dY]HLLRTLLELARTQSQREEAEKNRIIFDSV-NH2
modifications: lactam 19-22; N-terminus assumed
SMILES: CC[C@H](C)[C@H](NC(=O)[C@H](CCCNC(=N)N)NC(=O)[C@H](CC(N)=O)NC(=O)[C@@H]1CCCCNC(=O)CC[C@H](NC(=O)[C@H](CCC(=O)O)NC(=O)[C@H](CCCNC(=N)N)NC(=O)[C@H](CCC(N)=O)NC(=O)[C@H](CO)NC(=O)[C@H](CCC(N)=O)NC(=O)[C@@H](NC(=O)[C@H](CCCNC(=N)N)NC(=O)[C@H](C)NC(=O)[C@H](CC(C)C)NC(=O)[C@H](CCC(=O)O)NC(=O)[C@H](CC(C)C)NC(=O)[C@H](CC(C)C)NC(=O)[C@@H](NC(=O)[C@H](CCCNC(=N)N)NC(=O)[C@H](CC(C)C)NC(=O)[C@H](CC(C)C)NC(=O)[C@H](Cc2c[nH]cn2)NC(=O)[C@H](N)Cc2ccc(O)cc2)[C@@H](C)O)[C@@H](C)O)C(=O)N[C@@H](C)C(=O)N[C@@H](CCC(=O)O)C(=O)N1)C(=O)N[C@H](C(=O)N[C@@H](Cc1ccccc1)C(=O)N[C@@H](CC(=O)O)C(=O)N[C@@H](CO)C(=O)N[C@H](C(N)=O)C(C)C)[C@@H](C)CC
B4: (cyclo 29-32) [D-Phe11, Glu29, D-Glu31, Lys32]-Ucn(11-40) (peptide)
peptide: [dF]HLLRTLLELARTQSQREEA[dE]KNRIIFDSV-NH2
modifications: lactam 19-22; N-terminus assumed
SMILES: CC[C@H](C)[C@H](NC(=O)[C@H](CCCNC(=N)N)NC(=O)[C@H](CC(N)=O)NC(=O)[C@@H]1CCCCNC(=O)CC[C@H](NC(=O)[C@H](CCC(=O)O)NC(=O)[C@H](CCCNC(=N)N)NC(=O)[C@H](CCC(N)=O)NC(=O)[C@H](CO)NC(=O)[C@H](CCC(N)=O)NC(=O)[C@@H](NC(=O)[C@H](CCCNC(=N)N)NC(=O)[C@H](C)NC(=O)[C@H](CC(C)C)NC(=O)[C@H](CCC(=O)O)NC(=O)[C@H](CC(C)C)NC(=O)[C@H](CC(C)C)NC(=O)[C@@H](NC(=O)[C@H](CCCNC(=N)N)NC(=O)[C@H](CC(C)C)NC(=O)[C@H](CC(C)C)NC(=O)[C@H](Cc2c[nH]cn2)NC(=O)[C@H](N)Cc2ccccc2)[C@@H](C)O)[C@@H](C)O)C(=O)N[C@@H](C)C(=O)N[C@H](CCC(=O)O)C(=O)N1)C(=O)N[C@H](C(=O)N[C@@H](Cc1ccccc1)C(=O)N[C@@H](CC(=O)O)C(=O)N[C@@H](CO)C(=O)N[C@H](C(N)=O)C(C)C)[C@@H](C)CC
B5: (cyclo 29-32) [Ac-Pro3,D-Ser4,D-Phe11, Glu29, Lys32]-hUcn(3-40) (peptide)
peptide: Ac-P[dS]LSIDLT[dF]HLLRTLLELARTQSQREEAEKNRIIFDSV-NH2
modifications: lactam 27-30
SMILES: CC[C@H](C)[C@H](NC(=O)[C@H](CO)NC(=O)[C@H](CC(C)C)NC(=O)[C@@H](CO)NC(=O)[C@@H]1CCCN1C(C)=O)C(=O)N[C@@H](CC(=O)O)C(=O)N[C@@H](CC(C)C)C(=O)N[C@H](C(=O)N[C@H](Cc1ccccc1)C(=O)N[C@@H](Cc1c[nH]cn1)C(=O)N[C@@H](CC(C)C)C(=O)N[C@@H](CC(C)C)C(=O)N[C@@H](CCCNC(=N)N)C(=O)N[C@H](C(=O)N[C@@H](CC(C)C)C(=O)N[C@@H](CC(C)C)C(=O)N[C@@H](CCC(=O)O)C(=O)N[C@@H](CC(C)C)C(=O)N[C@@H](C)C(=O)N[C@@H](CCCNC(=N)N)C(=O)N[C@H](C(=O)N[C@@H](CCC(N)=O)C(=O)N[C@@H](CO)C(=O)N[C@@H](CCC(N)=O)C(=O)N[C@@H](CCCNC(=N)N)C(=O)N[C@@H](CCC(=O)O)C(=O)N[C@H]1CCC(=O)NCCCC[C@@H](C(=O)N[C@@H](CC(N)=O)C(=O)N[C@@H](CCCNC(=N)N)C(=O)N[C@H](C(=O)N[C@H](C(=O)N[C@@H](Cc2ccccc2)C(=O)N[C@@H](CC(=O)O)C(=O)N[C@@H](CO)C(=O)N[C@H](C(N)=O)C(C)C)[C@@H](C)CC)[C@@H](C)CC)NC(=O)[C@H](CCC(=O)O)NC(=O)[C@H](C)NC1=O)[C@@H](C)O)[C@@H](C)O)[C@@H](C)O
B6: (cyclo 29-32) [Ac-Pro3,D-Pro4,D-Phe11, Glu29, Lys32]-hUcn(3-40) (peptide)
peptide: Ac-P[dP]LSIDLT[dF]HLLRTLLELARTQSQREEAEKNRIIFDSV-NH2
modifications: lactam 27-30
SMILES: CC[C@H](C)[C@H](NC(=O)[C@H](CO)NC(=O)[C@H](CC(C)C)NC(=O)[C@H]1CCCN1C(=O)[C@@H]1CCCN1C(C)=O)C(=O)N[C@@H](CC(=O)O)C(=O)N[C@@H](CC(C)C)C(=O)N[C@H](C(=O)N[C@H](Cc1ccccc1)C(=O)N[C@@H](Cc1c[nH]cn1)C(=O)N[C@@H](CC(C)C)C(=O)N[C@@H](CC(C)C)C(=O)N[C@@H](CCCNC(=N)N)C(=O)N[C@H](C(=O)N[C@@H](CC(C)C)C(=O)N[C@@H](CC(C)C)C(=O)N[C@@H](CCC(=O)O)C(=O)N[C@@H](CC(C)C)C(=O)N[C@@H](C)C(=O)N[C@@H](CCCNC(=N)N)C(=O)N[C@H](C(=O)N[C@@H](CCC(N)=O)C(=O)N[C@@H](CO)C(=O)N[C@@H](CCC(N)=O)C(=O)N[C@@H](CCCNC(=N)N)C(=O)N[C@@H](CCC(=O)O)C(=O)N[C@H]1CCC(=O)NCCCC[C@@H](C(=O)N[C@@H](CC(N)=O)C(=O)N[C@@H](CCCNC(=N)N)C(=O)N[C@H](C(=O)N[C@H](C(=O)N[C@@H](Cc2ccccc2)C(=O)N[C@@H](CC(=O)O)C(=O)N[C@@H](CO)C(=O)N[C@H](C(N)=O)C(C)C)[C@@H](C)CC)[C@@H](C)CC)NC(=O)[C@H](CCC(=O)O)NC(=O)[C@H](C)NC1=O)[C@@H](C)O)[C@@H](C)O)[C@@H](C)O

target: CRF receptors on anterior pituitary cells in culture; assay: cell-based or functional assay; details: not given

| Molecule | antagonism of ACTH secretion under a challenge dose of ovine CRF, potency relative to the Standard Antagonist (times Standard Antagonist) | ACTH secretion, anterior pituitary cell cultures, potency relative to r/hCRF [times r/hCRF] |
| --- | --- | --- |
| B1 | 10.3 |  |
| B2 |  | 6.14 |
| [dY]DNPSLSIDLTFHLLRTLLELARTQSQRERAEQNRIIFDSV-NH2 [[D-Tyr0]hUcn(1-40)] |  | 1.23 |
| B3 | 4.01 |  |
| B4 | 4.72 |  |
| B5 |  | 5.69 |
| B6 |  | 9.9 |

test system: mammalian mean arterial blood pressure; assay: in vivo test measuring elevation of mean arterial blood pressure as a result of iv injection; details: result in words; indicative of a Ucn antagonist
Text: The peptide, Ucn(11-40), having the amino acid sequence (see SEQ ID NO: 8): […] is synthesized in the manner described in Example I. To evaluate the biological activity of a candidate peptide as a Ucn antagonist (which will be indicative of its effective binding to CRF receptors), the previously mentioned assay from Endocrinology, 91, supra, is run in the presence of a challenge dose of ovine CRF. […] An in vivo test measuring elevation of mean arterial blood pressure as a result of iv injection is also simply and straightforwardly performed.

| Molecule | vasoconstrictive activity causing elevation of mean arterial blood pressure |
| --- | --- |
| H-Phe-His-Leu-Leu-Arg-Thr-Leu-Leu-Glu-Leu-Ala-Arg-Thr-Gln-Ser-Gln-Arg-Glu-Arg-Ala-Glu-Gln-Asn-Arg-Ile-Ile-Phe-Asp-Ser-Val-NH2 (H-FHLLRTLLELARTQSQRERAEQNRIIFDSV-NH2) [Ucn(11-40)] | significant mammalian vasoconstrictive activity |
| H-[dY]HLLRTLLELARTQSQRERAEQNRIIFDSV-NH2 [[D-Tyr^11]-Ucn(11-40)] | significant mammalian vasoconstrictive activity |
| H-[dF]HLLRTLLELARTQSQREKA[dE]ENRIIFDSV-NH2 | significant mammalian vasoconstrictive activity |
| H-[dF]HLLRTLLELARTQSQREEA[dR][Orn]NRIIFDSV-NH2 | significant mammalian vasoconstrictive activity |
| H-[dY]HLLRTLLELARTQSQREEA[dE]KNRIIFDSV-NH2 | significant mammalian vasoconstrictive activity |
| H-[dF]HLLRTLLELARTQSQREKAEENRIIFDSV-NH2 | significant mammalian vasoconstrictive activity |
